In US20250276018A1 (AFFYIMMUNE THERAPEUTICS, published 2025):
Read-outs that look alike come from different tables or passages of the source.

Experiments:
[1] = target: T1, AF647 labeled c-met protein (UniProt P08581 25-932, limits assumed, labeled with AlexaFluor 647 (AF647)); experiment: flow cytometry, AF647-labeled c-met protein titrated on CAR-T cells (Round 1)
T1 construct: Soluble labeled c-met protein titrated on CAR-T cells
Method: (§1) Binding of labeled c-MET to CAR-T cells expressing the affinity tuned c-MET scFvs was evaluated by transducing lentivirus anti-c-MET CAR particles into human T cells to form c-MET CAR-T cells incubated with AF647-labeled c-MET. […] Following a 48 hr. incubation at 37° C., the culture media was brought up to […] per well and incubated at 37° C. for 10 days.
(§2) Cells were stained on ice for 30 mins and then washed with PBS. After washing, residually bound protein on CAR T cells were measured on a flow cytometer (Beckman, CytoFLEX®). The resulting binding data was fit using a non-linear regression analysis on GraphPad Prism to calculate half effective dose concentration (EC₅₀) values. The results of this analysis are shown in FIGS. 2-5 and Tables 2-5 below.

[2] = target: T2, c-MET on human target cells (human, UniProt P08581 25-1390); experiment: cell-based or functional assay
T2 sequence (P08581 25-1390): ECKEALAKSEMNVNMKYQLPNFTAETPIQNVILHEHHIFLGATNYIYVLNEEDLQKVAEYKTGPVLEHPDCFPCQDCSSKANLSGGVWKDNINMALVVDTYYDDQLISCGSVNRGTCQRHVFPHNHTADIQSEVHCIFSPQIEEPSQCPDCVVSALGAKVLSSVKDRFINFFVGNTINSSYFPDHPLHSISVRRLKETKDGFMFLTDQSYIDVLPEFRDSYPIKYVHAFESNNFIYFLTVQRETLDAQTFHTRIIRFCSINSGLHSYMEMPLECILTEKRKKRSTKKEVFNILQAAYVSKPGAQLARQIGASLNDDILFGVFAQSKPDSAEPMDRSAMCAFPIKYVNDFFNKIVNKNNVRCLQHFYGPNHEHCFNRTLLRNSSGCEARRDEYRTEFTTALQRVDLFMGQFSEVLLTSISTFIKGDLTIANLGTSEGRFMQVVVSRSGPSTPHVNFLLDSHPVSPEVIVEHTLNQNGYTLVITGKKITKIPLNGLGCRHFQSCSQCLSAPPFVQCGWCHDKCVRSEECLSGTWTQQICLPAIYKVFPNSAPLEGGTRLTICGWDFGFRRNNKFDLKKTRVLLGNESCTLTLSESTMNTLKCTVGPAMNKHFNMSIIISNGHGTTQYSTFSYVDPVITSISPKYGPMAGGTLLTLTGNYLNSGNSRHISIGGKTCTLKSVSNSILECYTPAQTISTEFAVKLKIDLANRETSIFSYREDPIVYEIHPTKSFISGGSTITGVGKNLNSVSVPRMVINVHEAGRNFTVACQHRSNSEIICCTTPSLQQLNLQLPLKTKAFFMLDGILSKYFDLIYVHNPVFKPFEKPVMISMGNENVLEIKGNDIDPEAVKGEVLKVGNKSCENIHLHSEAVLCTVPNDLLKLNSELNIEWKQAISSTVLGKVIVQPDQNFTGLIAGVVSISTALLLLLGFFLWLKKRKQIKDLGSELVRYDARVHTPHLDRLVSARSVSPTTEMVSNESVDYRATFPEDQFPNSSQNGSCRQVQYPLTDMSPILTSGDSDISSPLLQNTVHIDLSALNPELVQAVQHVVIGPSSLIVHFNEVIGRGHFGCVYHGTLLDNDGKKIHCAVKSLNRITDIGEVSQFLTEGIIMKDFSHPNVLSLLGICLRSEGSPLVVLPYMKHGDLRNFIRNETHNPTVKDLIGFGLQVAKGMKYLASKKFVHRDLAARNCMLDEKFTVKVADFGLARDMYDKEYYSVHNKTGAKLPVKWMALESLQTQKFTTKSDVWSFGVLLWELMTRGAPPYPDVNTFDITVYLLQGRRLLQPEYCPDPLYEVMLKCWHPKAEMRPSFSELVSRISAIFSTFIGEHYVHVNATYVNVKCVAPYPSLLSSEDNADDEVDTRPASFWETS

[3] = target: T2, c-MET on human target cells; experiment: cell-based or functional assay; remark: listed apart in the source
[4] = target: T2, c-MET on human target cells; experiment: cell-based or functional assay; remark: listed apart in the source
[5] = target: T2, c-MET on human target cells; experiment: cell-based or functional assay; remark: listed apart in the source
[6] = target: T2, c-MET on human target cells; experiment: cell-based or functional assay; remark: listed apart in the source
[7] = target: T1, AF647 labeled c-met protein; experiment: flow cytometry, AF647-labeled c-met protein titrated on CAR-T cells (Round 2)
Method: as §1, §2

[8] = target: T2, c-MET on human target cells; experiment: cell-based or functional assay; remark: listed apart in the source
[9] = target: T2, c-MET on human target cells; experiment: cell-based or functional assay; remark: listed apart in the source
[10] = target: T2, c-MET on human target cells; experiment: cell-based or functional assay; remark: listed apart in the source
[11] = target: T2, c-MET on human target cells; experiment: cell-based or functional assay; remark: listed apart in the source
[12] = target: T2, c-MET on human target cells; experiment: cell-based or functional assay; remark: listed apart in the source
[13] = target: T2, c-MET on human target cells; experiment: cell-based or functional assay; remark: listed apart in the source
[14] = target: T1, AF647 labeled c-met protein; experiment: flow cytometry, EC50 relative to parental Affy7 CAR-T cells (Round 2)
Method: as §1, §2

T1 sequence (P08581 25-932 limits assumed): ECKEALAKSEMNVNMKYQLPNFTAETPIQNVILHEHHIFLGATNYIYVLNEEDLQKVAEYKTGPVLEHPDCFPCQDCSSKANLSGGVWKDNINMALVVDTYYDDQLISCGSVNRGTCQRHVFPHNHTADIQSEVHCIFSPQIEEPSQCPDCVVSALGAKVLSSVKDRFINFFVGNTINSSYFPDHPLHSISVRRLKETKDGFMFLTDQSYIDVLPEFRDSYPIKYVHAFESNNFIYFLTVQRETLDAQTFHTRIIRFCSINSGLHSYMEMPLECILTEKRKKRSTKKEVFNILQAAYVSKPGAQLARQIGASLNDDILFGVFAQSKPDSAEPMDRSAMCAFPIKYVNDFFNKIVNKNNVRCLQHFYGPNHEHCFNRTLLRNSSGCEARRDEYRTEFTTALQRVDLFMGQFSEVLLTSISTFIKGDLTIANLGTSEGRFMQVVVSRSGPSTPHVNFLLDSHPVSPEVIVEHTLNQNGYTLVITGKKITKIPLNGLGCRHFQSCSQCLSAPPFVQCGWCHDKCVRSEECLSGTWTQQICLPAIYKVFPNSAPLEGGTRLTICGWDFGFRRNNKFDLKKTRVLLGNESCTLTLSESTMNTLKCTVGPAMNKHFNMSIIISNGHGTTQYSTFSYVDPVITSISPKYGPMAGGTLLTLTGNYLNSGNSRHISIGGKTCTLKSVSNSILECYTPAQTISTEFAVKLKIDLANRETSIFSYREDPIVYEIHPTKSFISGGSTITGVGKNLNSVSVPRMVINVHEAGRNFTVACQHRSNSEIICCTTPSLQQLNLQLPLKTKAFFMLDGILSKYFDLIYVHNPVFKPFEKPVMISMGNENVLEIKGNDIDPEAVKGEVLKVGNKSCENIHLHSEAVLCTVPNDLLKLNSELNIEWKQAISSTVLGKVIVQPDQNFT

B1: Affy7 CAR (control) (other)
chain: GSEQKLISEEDLGSQVQLQQSGPELVRPGASVKMSCRASGYTFTSYWLHWVKQRPGQGLEWIGMIDPSNSDTRFNPNFKDKATLNVDRSSNTAYMLLSSLTSADSAVYYCATYGSYVSPLDYWGQGTSVTVSSGGGGSGGGGSGGGGSDIMMSQSPSSLTVSVGEKVTVSCKSSQSLLYTSSQKNYLAWYQQKPGQSPKLLIYWASTRESGVPDRFTGSGSGTDFTLTITSVKADDLAVYYCQQYYAYPWTFGGGTKLEIKRASTTTPAPRPPTPAPTIASQPLSLRPEACRPAAGGAVHTRGLDFACDFWVLVVVGGVLACYSLLVTVAFIIFWVRSKRSRLLHSDYMNMTPRRPGPTRKHYQPYAPPRDFAAYRSLRVKFSRSADAPAYQQGQNQLYNELNLGRREEYDVLDKRRGRDPEMGGKPRRKNPQEGLYNELQKDKMAEAYSEIGMKGERRRGKGHDGLYQGLSTATKDTYDALHMQALPPR
notes: residues of P2A left at the intracellular C-terminus are not included; also called parent Affy7 CAR-T cells; parental Affy7
EC50 [1]: 0.05 µM | cytotoxicity, Normal Human Lung Cells, 8 hrs [2]: 14.7 | cytotoxicity, Normal Human Lung Cells, 16 hrs [2]: 33.3 | cytotoxicity, Normal Human Lung Cells, 24 hrs [2]: 50.7 | cytotoxicity, Normal Human Lung Cells, 32 hrs [2]: 57.1 | cytotoxicity, Normal Human Lung Cells, 40 hrs [2]: 59.9 | cytotoxicity, Normal Human Lung Cells, 47 hrs [2]: 56.5 | percent cytotoxicity, SNU638, 24 hrs [3]: 78.6% | percent cytotoxicity, SNU638, 48 hrs [3]: 95.9% | percent cytotoxicity, SNU638, 72 hrs [3]: 99.5% | cytotoxicity, Normal Human Liver Cells, 8 hrs [4]: 17.7 | cytotoxicity, Normal Human Liver Cells, 16 hrs [4]: 30.1 | cytotoxicity, Normal Human Liver Cells, 24 hrs [4]: 38.6 | cytotoxicity, Normal Human Liver Cells, 32 hrs [4]: 46.2 | cytotoxicity, Normal Human Liver Cells, 40 hrs [4]: 59.1 | cytotoxicity, Normal Human Liver Cells, 48 hrs [4]: 68.7 | cytotoxicity, Normal Human Lung Cells, 8 hrs [5]: 31.8 | cytotoxicity, Normal Human Lung Cells, 16 hrs [5]: 35.7 | cytotoxicity, Normal Human Lung Cells, 24 hrs [5]: 43.2 | cytotoxicity, Normal Human Lung Cells, 32 hrs [5]: 55.8 | cytotoxicity, Normal Human Lung Cells, 40 hrs [5]: 67.5 | cytotoxicity, Normal Human Lung Cells, 48 hrs [5]: 76 | cytotoxicity, Normal Human Liver Cells, 8 hrs [6]: 23.4 | cytotoxicity, Normal Human Liver Cells, 16 hrs [6]: 36.9 | cytotoxicity, Normal Human Liver Cells, 24 hrs [6]: 50.7 | cytotoxicity, Normal Human Liver Cells, 32 hrs [6]: 64 | cytotoxicity, Normal Human Liver Cells, 40 hrs [6]: 71.2 | cytotoxicity, Normal Human Liver Cells, 48 hrs [6]: 73.4 | EC50 [7]: 0.1 µM | percent cytotoxicity, Hs746T, 24 hrs [8]: 87.1% | percent cytotoxicity, Hs746T, 48 hrs [8]: 97.6% | percent cytotoxicity, Hs746T, 72 hrs [8]: 99.2% | cytotoxicity, Normal Human Colon Cells, 8 hrs [9]: 13.8 | cytotoxicity, Normal Human Colon Cells, 16 hrs [9]: 29.3 | cytotoxicity, Normal Human Colon Cells, 24 hrs [9]: 34.9 | cytotoxicity, Normal Human Colon Cells, 32 hrs [9]: 42.8 | cytotoxicity, Normal Human Colon Cells, 40 hrs [9]: 54.1 | cytotoxicity, Normal Human Colon Cells, 48 hrs [9]: 60.1 | cytotoxicity, Normal Human Kidney Cells, 8 hrs [10]: 12.5 | cytotoxicity, Normal Human Kidney Cells, 16 hrs [10]: 27.2 | cytotoxicity, Normal Human Kidney Cells, 24 hrs [10]: 32.4 | cytotoxicity, Normal Human Kidney Cells, 32 hrs [10]: 36.9 | cytotoxicity, Normal Human Kidney Cells, 40 hrs [10]: 47.4 | cytotoxicity, Normal Human Kidney Cells, 48 hrs [10]: 59 | cytotoxicity, Normal Human Colon Cells, 8 hrs [11]: 28.5 | cytotoxicity, Normal Human Colon Cells, 16 hrs [11]: 33.9 | cytotoxicity, Normal Human Colon Cells, 24 hrs [11]: 43.2 | cytotoxicity, Normal Human Colon Cells, 32 hrs [11]: 57 | cytotoxicity, Normal Human Colon Cells, 40 hrs [11]: 69.7 | cytotoxicity, Normal Human Colon Cells, 48 hrs [11]: 79.4 | percent cytotoxicity, H1993, 24 hrs [12]: 85.6% | percent cytotoxicity, H1993, 48 hrs [12]: 97.7% | percent cytotoxicity, H1993, 72 hrs [12]: 99.6% | cytotoxicity, Normal Human Kidney Cells, 8 hrs [13]: 32.7 | cytotoxicity, Normal Human Kidney Cells, 16 hrs [13]: 43.5 | cytotoxicity, Normal Human Kidney Cells, 24 hrs [13]: 53.8 | cytotoxicity, Normal Human Kidney Cells, 32 hrs [13]: 61.2 | cytotoxicity, Normal Human Kidney Cells, 40 hrs [13]: 70.2 | cytotoxicity, Normal Human Kidney Cells, 48 hrs [13]: 76.5

B2: Affy7-Y6I CAR (other)
chain: GSEQKLISEEDLGSQVQLQQSGPELVRPGASVKMSCRASGYTFTSYWLHWVKQRPGQGLEWIGMIDPSNSDTRFNPNFKDKATLNVDRSSNTAYMLLSSLTSADSAVYYCATIGSYVSPLDYWGQGTSVTVSSGGGGSGGGGSGGGGSDIMMSQSPSSLTVSVGEKVTVSCKSSQSLLYTSSQKNYLAWYQQKPGQSPKLLIYWASTRESGVPDRFTGSGSGTDFTLTITSVKADDLAVYYCQQYYAYPWTFGGGTKLEIKRASTTTPAPRPPTPAPTIASQPLSLRPEACRPAAGGAVHTRGLDFACDFWVLVVVGGVLACYSLLVTVAFIIFWVRSKRSRLLHSDYMNMTPRRPGPTRKHYQPYAPPRDFAAYRSLRVKFSRSADAPAYQQGQNQLYNELNLGRREEYDVLDKRRGRDPEMGGKPRRKNPQEGLYNELQKDKMAEAYSEIGMKGERRRGKGHDGLYQGLSTATKDTYDALHMQALPPR
notes: CAR on transduced human T cells; Y to I in HC CDR3; P2A remnant not included; also called MycT-Affy7-Y6I CAR-SSTR2
Fold Change [14]: 1830 fold | percent cytotoxicity, SNU638, 24 hrs [3]: 67% | percent cytotoxicity, SNU638, 48 hrs [3]: 83.6% | percent cytotoxicity, SNU638, 72 hrs [3]: 93.2% | cytotoxicity, Normal Human Lung Cells, 8 hrs [5]: 23.1 | cytotoxicity, Normal Human Lung Cells, 16 hrs [5]: 27.5 | cytotoxicity, Normal Human Lung Cells, 24 hrs [5]: 26.9 | cytotoxicity, Normal Human Lung Cells, 32 hrs [5]: 29.7 | cytotoxicity, Normal Human Lung Cells, 40 hrs [5]: 29.9 | cytotoxicity, Normal Human Lung Cells, 48 hrs [5]: 30.9 | cytotoxicity, Normal Human Liver Cells, 8 hrs [6]: 7.8 | cytotoxicity, Normal Human Liver Cells, 16 hrs [6]: 6.2 | cytotoxicity, Normal Human Liver Cells, 24 hrs [6]: 7.4 | cytotoxicity, Normal Human Liver Cells, 32 hrs [6]: 17.8 | cytotoxicity, Normal Human Liver Cells, 40 hrs [6]: 16.4 | cytotoxicity, Normal Human Liver Cells, 48 hrs [6]: 13.6 | EC50 [7]: 183 µM | percent cytotoxicity, Hs746T, 24 hrs [8]: 1.5% | percent cytotoxicity, Hs746T, 48 hrs [8]: 45.4% | percent cytotoxicity, Hs746T, 72 hrs [8]: 69.4% | cytotoxicity, Normal Human Colon Cells, 8 hrs [11]: 15.1 | cytotoxicity, Normal Human Colon Cells, 16 hrs [11]: 18.8 | cytotoxicity, Normal Human Colon Cells, 24 hrs [11]: 20.8 | cytotoxicity, Normal Human Colon Cells, 32 hrs [11]: 28.9 | cytotoxicity, Normal Human Colon Cells, 40 hrs [11]: 32.5 | cytotoxicity, Normal Human Colon Cells, 48 hrs [11]: 36.4 | percent cytotoxicity, H1993, 24 hrs [12]: 11.7% | percent cytotoxicity, H1993, 48 hrs [12]: 45.8% | percent cytotoxicity, H1993, 72 hrs [12]: 73.5% | cytotoxicity, Normal Human Kidney Cells, 8 hrs [13]: 20.5 | cytotoxicity, Normal Human Kidney Cells, 16 hrs [13]: 20.9 | cytotoxicity, Normal Human Kidney Cells, 24 hrs [13]: 25.8 | cytotoxicity, Normal Human Kidney Cells, 32 hrs [13]: 27.6 | cytotoxicity, Normal Human Kidney Cells, 40 hrs [13]: 29.7 | cytotoxicity, Normal Human Kidney Cells, 48 hrs [13]: 33.9

B3: Affy7-Y6L CAR (other)
chain: GSEQKLISEEDLGSQVQLQQSGPELVRPGASVKMSCRASGYTFTSYWLHWVKQRPGQGLEWIGMIDPSNSDTRFNPNFKDKATLNVDRSSNTAYMLLSSLTSADSAVYYCATLGSYVSPLDYWGQGTSVTVSSGGGGSGGGGSGGGGSDIMMSQSPSSLTVSVGEKVTVSCKSSQSLLYTSSQKNYLAWYQQKPGQSPKLLIYWASTRESGVPDRFTGSGSGTDFTLTITSVKADDLAVYYCQQYYAYPWTFGGGTKLEIKRASTTTPAPRPPTPAPTIASQPLSLRPEACRPAAGGAVHTRGLDFACDFWVLVVVGGVLACYSLLVTVAFIIFWVRSKRSRLLHSDYMNMTPRRPGPTRKHYQPYAPPRDFAAYRSLRVKFSRSADAPAYQQGQNQLYNELNLGRREEYDVLDKRRGRDPEMGGKPRRKNPQEGLYNELQKDKMAEAYSEIGMKGERRRGKGHDGLYQGLSTATKDTYDALHMQALPPR
notes: CAR on transduced human T cells; Y to L in HC CDR3; P2A remnant not included; also called MycT-Affy7-Y6L CAR-SSTR2
Fold Change [14]: 6190 fold | percent cytotoxicity, SNU638, 24 hrs [3]: 66.9% | percent cytotoxicity, SNU638, 48 hrs [3]: 84.5% | percent cytotoxicity, SNU638, 72 hrs [3]: 93.5% | cytotoxicity, Normal Human Lung Cells, 8 hrs [5]: 21.1 | cytotoxicity, Normal Human Lung Cells, 16 hrs [5]: 23.6 | cytotoxicity, Normal Human Lung Cells, 24 hrs [5]: 22.8 | cytotoxicity, Normal Human Lung Cells, 32 hrs [5]: 25.4 | cytotoxicity, Normal Human Lung Cells, 40 hrs [5]: 25.9 | cytotoxicity, Normal Human Lung Cells, 48 hrs [5]: 30.1 | cytotoxicity, Normal Human Liver Cells, 8 hrs [6]: 6.1 | cytotoxicity, Normal Human Liver Cells, 16 hrs [6]: 2.3 | cytotoxicity, Normal Human Liver Cells, 24 hrs [6]: 2.5 | cytotoxicity, Normal Human Liver Cells, 32 hrs [6]: 1.1 | cytotoxicity, Normal Human Liver Cells, 40 hrs [6]: 0 | cytotoxicity, Normal Human Liver Cells, 48 hrs [6]: 3.2 | EC50 [7]: 619 µM | percent cytotoxicity, Hs746T, 24 hrs [8]: 1.6% | percent cytotoxicity, Hs746T, 48 hrs [8]: 42.9% | percent cytotoxicity, Hs746T, 72 hrs [8]: 64.5% | cytotoxicity, Normal Human Colon Cells, 8 hrs [11]: 12.1 | cytotoxicity, Normal Human Colon Cells, 16 hrs [11]: 16.4 | cytotoxicity, Normal Human Colon Cells, 24 hrs [11]: 13.6 | cytotoxicity, Normal Human Colon Cells, 32 hrs [11]: 19 | cytotoxicity, Normal Human Colon Cells, 40 hrs [11]: 20 | cytotoxicity, Normal Human Colon Cells, 48 hrs [11]: 17.2 | percent cytotoxicity, H1993, 24 hrs [12]: 12.8% | percent cytotoxicity, H1993, 48 hrs [12]: 42.6% | percent cytotoxicity, H1993, 72 hrs [12]: 71.2% | cytotoxicity, Normal Human Kidney Cells, 8 hrs [13]: 11.7 | cytotoxicity, Normal Human Kidney Cells, 16 hrs [13]: 12.9 | cytotoxicity, Normal Human Kidney Cells, 24 hrs [13]: 14.8 | cytotoxicity, Normal Human Kidney Cells, 32 hrs [13]: 16.2 | cytotoxicity, Normal Human Kidney Cells, 40 hrs [13]: 17.1 | cytotoxicity, Normal Human Kidney Cells, 48 hrs [13]: 21.4
